{"source": "the Human Domainome abundance scans (Beltran et al. 2025)", "note": "± gives the uncertainty stated by the source."}
{"experiment": "abundance fitness (aPCA) (normalised: wild type 0, dead -1); higher = more abundant; growth selection in yeast, the domain comes from the species named", "conditions": "Homo sapiens"}
{"substance": "E3 ubiquitin-protein ligase NEDD4-like V212D, Q96PU5", "abundance fitness": "-0.458 ± 0.094"}
{"substance": "E3 ubiquitin-protein ligase NEDD4-like V212E, Q96PU5", "abundance fitness": "-0.068 ± 0.057"}
{"substance": "E3 ubiquitin-protein ligase NEDD4-like V212G, Q96PU5", "abundance fitness": "-0.417 ± 0.053"}
{"substance": "E3 ubiquitin-protein ligase NEDD4-like V212H, Q96PU5", "abundance fitness": "-0.207 ± 0.12"}
{"substance": "E3 ubiquitin-protein ligase NEDD4-like V212I, Q96PU5", "abundance fitness": "-0.356 ± 0.12"}
{"substance": "E3 ubiquitin-protein ligase NEDD4-like V212K, Q96PU5", "abundance fitness": "-0.974 ± 0.18"}
{"substance": "E3 ubiquitin-protein ligase NEDD4-like V212M, Q96PU5", "abundance fitness": "-0.076 ± 0.076"}
{"substance": "E3 ubiquitin-protein ligase NEDD4-like V212N, Q96PU5", "abundance fitness": "-0.47 ± 0.15"}
{"substance": "E3 ubiquitin-protein ligase NEDD4-like V212P, Q96PU5", "abundance fitness": "-0.485 ± 0.11"}
{"substance": "E3 ubiquitin-protein ligase NEDD4-like V212R, Q96PU5", "abundance fitness": "-0.196 ± 0.057"}
{"substance": "E3 ubiquitin-protein ligase NEDD4-like V212S, Q96PU5", "abundance fitness": "-0.347 ± 0.071"}
{"substance": "E3 ubiquitin-protein ligase NEDD4-like V212T, Q96PU5", "abundance fitness": "-0.225 ± 0.094"}
{"substance": "E3 ubiquitin-protein ligase NEDD4-like V212W, Q96PU5", "abundance fitness": "-0.183 ± 0.083"}
{"substance": "E3 ubiquitin-protein ligase NEDD4-like V212Y, Q96PU5", "abundance fitness": "-0.003 ± 0.15"}
{"substance": "E3 ubiquitin-protein ligase NEDD4-like V229A, Q96PU5", "abundance fitness": "-0.001 ± 0.064"}
{"substance": "E3 ubiquitin-protein ligase NEDD4-like V229C, Q96PU5", "abundance fitness": "-0.203 ± 0.084"}
{"substance": "E3 ubiquitin-protein ligase NEDD4-like V229D, Q96PU5", "abundance fitness": "0.019 ± 0.068"}
{"substance": "E3 ubiquitin-protein ligase NEDD4-like V229E, Q96PU5", "abundance fitness": "0.003 ± 0.077"}
{"substance": "E3 ubiquitin-protein ligase NEDD4-like V229F, Q96PU5", "abundance fitness": "-0.057 ± 0.099"}
{"substance": "E3 ubiquitin-protein ligase NEDD4-like V229G, Q96PU5", "abundance fitness": "0.036 ± 0.057"}
{"substance": "E3 ubiquitin-protein ligase NEDD4-like V229H, Q96PU5", "abundance fitness": "-0.263 ± 0.1"}
{"substance": "E3 ubiquitin-protein ligase NEDD4-like V229I, Q96PU5", "abundance fitness": "-0.013 ± 0.099"}
{"substance": "E3 ubiquitin-protein ligase NEDD4-like V229K, Q96PU5", "abundance fitness": "-0.111 ± 0.095"}
{"substance": "E3 ubiquitin-protein ligase NEDD4-like V229L, Q96PU5", "abundance fitness": "0.057 ± 0.056"}
{"substance": "E3 ubiquitin-protein ligase NEDD4-like V229N, Q96PU5", "abundance fitness": "-0.007 ± 0.11"}
{"substance": "E3 ubiquitin-protein ligase NEDD4-like V229Q, Q96PU5", "abundance fitness": "-0.133 ± 0.1"}
{"substance": "E3 ubiquitin-protein ligase NEDD4-like V229R, Q96PU5", "abundance fitness": "-0.016 ± 0.061"}
{"substance": "E3 ubiquitin-protein ligase NEDD4-like V229S, Q96PU5", "abundance fitness": "0.033 ± 0.067"}
{"substance": "E3 ubiquitin-protein ligase NEDD4-like V229T, Q96PU5", "abundance fitness": "0.018 ± 0.065"}
{"substance": "E3 ubiquitin-protein ligase NEDD4-like V229W, Q96PU5", "abundance fitness": "-0.164 ± 0.06"}
{"substance": "E3 ubiquitin-protein ligase NEDD4-like W199A, Q96PU5", "abundance fitness": "-0.535 ± 0.086"}
{"substance": "E3 ubiquitin-protein ligase NEDD4-like W199C, Q96PU5", "abundance fitness": "-0.25 ± 0.098"}
{"substance": "E3 ubiquitin-protein ligase NEDD4-like W199D, Q96PU5", "abundance fitness": "-0.744 ± 0.1"}
{"substance": "E3 ubiquitin-protein ligase NEDD4-like W199E, Q96PU5", "abundance fitness": "-0.275 ± 0.083"}
{"substance": "E3 ubiquitin-protein ligase NEDD4-like W199F, Q96PU5", "abundance fitness": "0.004 ± 0.079"}
{"substance": "E3 ubiquitin-protein ligase NEDD4-like W199G, Q96PU5", "abundance fitness": "-0.413 ± 0.063"}
{"substance": "E3 ubiquitin-protein ligase NEDD4-like W199I, Q96PU5", "abundance fitness": "-0.462 ± 0.13"}
{"substance": "E3 ubiquitin-protein ligase NEDD4-like W199L, Q96PU5", "abundance fitness": "-0.502 ± 0.058"}
{"substance": "E3 ubiquitin-protein ligase NEDD4-like W199M, Q96PU5", "abundance fitness": "-0.514 ± 0.089"}
{"substance": "E3 ubiquitin-protein ligase NEDD4-like W199N, Q96PU5", "abundance fitness": "-0.853 ± 0.19"}
{"substance": "E3 ubiquitin-protein ligase NEDD4-like W199P, Q96PU5", "abundance fitness": "-1.03 ± 0.13"}
{"substance": "E3 ubiquitin-protein ligase NEDD4-like W199Q, Q96PU5", "abundance fitness": "-0.586 ± 0.098"}
{"substance": "E3 ubiquitin-protein ligase NEDD4-like W199R, Q96PU5", "abundance fitness": "-0.536 ± 0.065"}
{"substance": "E3 ubiquitin-protein ligase NEDD4-like W199S, Q96PU5", "abundance fitness": "-0.454 ± 0.067"}
{"substance": "E3 ubiquitin-protein ligase NEDD4-like W199T, Q96PU5", "abundance fitness": "-0.176 ± 0.09"}
{"substance": "E3 ubiquitin-protein ligase NEDD4-like W199V, Q96PU5", "abundance fitness": "-0.287 ± 0.07"}
{"substance": "E3 ubiquitin-protein ligase NEDD4-like W199Y, Q96PU5", "abundance fitness": "-0.403 ± 0.14"}
{"substance": "E3 ubiquitin-protein ligase NEDD4-like W221A, Q96PU5", "abundance fitness": "-0.035 ± 0.077"}
{"substance": "E3 ubiquitin-protein ligase NEDD4-like W221C, Q96PU5", "abundance fitness": "-0.051 ± 0.079"}
{"substance": "E3 ubiquitin-protein ligase NEDD4-like W221D, Q96PU5", "abundance fitness": "-0.029 ± 0.1"}
{"substance": "E3 ubiquitin-protein ligase NEDD4-like W221E, Q96PU5", "abundance fitness": "-0.106 ± 0.085"}
{"substance": "E3 ubiquitin-protein ligase NEDD4-like W221F, Q96PU5", "abundance fitness": "-0.04 ± 0.084"}
{"substance": "E3 ubiquitin-protein ligase NEDD4-like W221G, Q96PU5", "abundance fitness": "-0.219 ± 0.063"}
{"substance": "E3 ubiquitin-protein ligase NEDD4-like W221H, Q96PU5", "abundance fitness": "-0.243 ± 0.1"}
{"substance": "E3 ubiquitin-protein ligase NEDD4-like W221I, Q96PU5", "abundance fitness": "-0.192 ± 0.12"}
{"substance": "E3 ubiquitin-protein ligase NEDD4-like W221K, Q96PU5", "abundance fitness": "-0.044 ± 0.1"}
{"substance": "E3 ubiquitin-protein ligase NEDD4-like W221L, Q96PU5", "abundance fitness": "-0.031 ± 0.054"}
{"substance": "E3 ubiquitin-protein ligase NEDD4-like W221N, Q96PU5", "abundance fitness": "-0.402 ± 0.11"}
{"substance": "E3 ubiquitin-protein ligase NEDD4-like W221Q, Q96PU5", "abundance fitness": "0.196 ± 0.1"}
{"substance": "E3 ubiquitin-protein ligase NEDD4-like W221R, Q96PU5", "abundance fitness": "-0.052 ± 0.058"}
{"substance": "E3 ubiquitin-protein ligase NEDD4-like W221S, Q96PU5", "abundance fitness": "0.124 ± 0.063"}
{"substance": "E3 ubiquitin-protein ligase NEDD4-like W221T, Q96PU5", "abundance fitness": "-0.035 ± 0.063"}
{"substance": "E3 ubiquitin-protein ligase NEDD4-like W221V, Q96PU5", "abundance fitness": "-0.123 ± 0.066"}
{"substance": "E3 ubiquitin-protein ligase NEDD4-like W221Y, Q96PU5", "abundance fitness": "0.193 ± 0.12"}
{"substance": "E3 ubiquitin-protein ligase NEDD4-like Y210A, Q96PU5", "abundance fitness": "-0.379 ± 0.067"}
{"substance": "E3 ubiquitin-protein ligase NEDD4-like Y210C, Q96PU5", "abundance fitness": "-0.386 ± 0.1"}
{"substance": "E3 ubiquitin-protein ligase NEDD4-like Y210E, Q96PU5", "abundance fitness": "-0.516 ± 0.082"}
{"substance": "E3 ubiquitin-protein ligase NEDD4-like Y210F, Q96PU5", "abundance fitness": "-0.255 ± 0.1"}
{"substance": "E3 ubiquitin-protein ligase NEDD4-like Y210G, Q96PU5", "abundance fitness": "-0.621 ± 0.057"}
{"substance": "E3 ubiquitin-protein ligase NEDD4-like Y210I, Q96PU5", "abundance fitness": "-0.379 ± 0.07"}
{"substance": "E3 ubiquitin-protein ligase NEDD4-like Y210K, Q96PU5", "abundance fitness": "-0.269 ± 0.069"}
{"substance": "E3 ubiquitin-protein ligase NEDD4-like Y210L, Q96PU5", "abundance fitness": "-0.261 ± 0.058"}
{"substance": "E3 ubiquitin-protein ligase NEDD4-like Y210M, Q96PU5", "abundance fitness": "-0.19 ± 0.084"}
{"substance": "E3 ubiquitin-protein ligase NEDD4-like Y210N, Q96PU5", "abundance fitness": "-0.589 ± 0.095"}
{"substance": "E3 ubiquitin-protein ligase NEDD4-like Y210P, Q96PU5", "abundance fitness": "-0.778 ± 0.1"}
{"substance": "E3 ubiquitin-protein ligase NEDD4-like Y210Q, Q96PU5", "abundance fitness": "-0.198 ± 0.069"}
{"substance": "E3 ubiquitin-protein ligase NEDD4-like Y210R, Q96PU5", "abundance fitness": "-0.299 ± 0.063"}
{"substance": "E3 ubiquitin-protein ligase NEDD4-like Y210S, Q96PU5", "abundance fitness": "-0.359 ± 0.071"}
{"substance": "E3 ubiquitin-protein ligase NEDD4-like Y210T, Q96PU5", "abundance fitness": "-0.159 ± 0.072"}
{"substance": "E3 ubiquitin-protein ligase NEDD4-like Y210V, Q96PU5", "abundance fitness": "-0.356 ± 0.069"}
{"substance": "E3 ubiquitin-protein ligase NEDD4-like Y210W, Q96PU5", "abundance fitness": "-0.287 ± 0.08"}
{"substance": "E3 ubiquitin-protein ligase NEDD4-like Y211C, Q96PU5", "abundance fitness": "-0.696 ± 0.08"}
{"substance": "E3 ubiquitin-protein ligase NEDD4-like Y211D, Q96PU5", "abundance fitness": "-0.486 ± 0.065"}
{"substance": "E3 ubiquitin-protein ligase NEDD4-like Y211E, Q96PU5", "abundance fitness": "-0.643 ± 0.058"}
{"substance": "E3 ubiquitin-protein ligase NEDD4-like Y211G, Q96PU5", "abundance fitness": "-0.749 ± 0.058"}
{"substance": "E3 ubiquitin-protein ligase NEDD4-like Y211H, Q96PU5", "abundance fitness": "-0.77 ± 0.12"}
{"substance": "E3 ubiquitin-protein ligase NEDD4-like Y211I, Q96PU5", "abundance fitness": "-0.601 ± 0.065"}
{"substance": "E3 ubiquitin-protein ligase NEDD4-like Y211K, Q96PU5", "abundance fitness": "-0.691 ± 0.097"}
{"substance": "E3 ubiquitin-protein ligase NEDD4-like Y211M, Q96PU5", "abundance fitness": "-0.779 ± 0.11"}
{"substance": "E3 ubiquitin-protein ligase NEDD4-like Y211N, Q96PU5", "abundance fitness": "-0.704 ± 0.16"}
{"substance": "E3 ubiquitin-protein ligase NEDD4-like Y211P, Q96PU5", "abundance fitness": "-0.548 ± 0.087"}
{"substance": "E3 ubiquitin-protein ligase NEDD4-like Y211Q, Q96PU5", "abundance fitness": "-0.704 ± 0.085"}
{"substance": "E3 ubiquitin-protein ligase NEDD4-like Y211R, Q96PU5", "abundance fitness": "-0.728 ± 0.052"}
{"substance": "E3 ubiquitin-protein ligase NEDD4-like Y211S, Q96PU5", "abundance fitness": "-0.715 ± 0.055"}
{"substance": "E3 ubiquitin-protein ligase NEDD4-like Y211T, Q96PU5", "abundance fitness": "-0.608 ± 0.064"}
